From patent US12616740B2, “Methods of using a GIP/GLP1 co-agonist for therapy” (ELI LILLY AND COMPANY, priority 2018, dated 2026)

Columns and labels:
Type in all cases: in vivo, human
[1] = system: patients with T2DM who have inadequate glycemic control; assay: Phase 2 clinical study NCT03131687 (26 weeks): patients reaching HbA1c target; details: dulaglutide 1.5 mg once weekly
Description: (§1) Clinical Study (NCT03131687) Supporting Maintenance Dose Embodiments A 6-month (26-week) Phase 2 double-blind clinical study is designed to evaluate the safety, efficacy, and PK/PD of 4 dose levels (1 mg, 5 mg, 10 mg and 15 mg respectively) of tirzepatide once weekly by subcutaneous injection compared with dulaglutide 1.5 mg. once weekly (QW) and placebo QW in patients with T2DM who have inadequate glycemic control with diet and exercise with or without a stable dose of metformin. Tirzepatide dose is up-titrated to the maintenance dose using the following weekly dose increments:
(§2) The study also has a 4-week follow up period. In addition to safety and efficacy for treating T2DM, efficacy endpoints include the effect of tirzepatide on HbA1c, FBG, body weight, lipids, and waist circumference compared with placebo and with dulaglutide 1.5 mg. The study also evaluates the effect of tirzepatide on GI tolerability, hypoglycemia, hypersensitivity reactions, and pancreatic safety, as well as the development of treatment-emergent anti-drug antibodies. Model-based dose response analyses are performed to predict potential for significant HbA1c lowering and weight loss in longer studies. Statistical Analyses: Efficacy: The primary efficacy outcome of HbA1c change from baseline to the 26-week endpoint is analyzed using a Bayesian dose-response model. Analyses are performed on the intention to treat population (mITT) analysis set. Supportive analysis of the primary efficacy outcome for the mITT dataset are the model for post-baseline measures (MMRM) with body mass index (BMI) (<30 kg/m^2, ≥30 kg/m^2), metformin use, treatment, visit, and treatment-by-visit interaction as fixed effects, baseline HbA1c as a covariate, and patient as a random effect. The mean weight change from baseline at 12 and 26 weeks, along with the mean change from baseline of HbA1c at 12 weeks, is analyzed using similar dose-response models as the primary analyses. The percentages of patients with ≥5% or ≥10% body weight loss, reaching the HbA1c target of ≤6.5% or ≤7.0% at 26 weeks, or requiring rescue therapy are analyzed using logistic regression with fixed effects of treatment and strata, and baseline as a covariate. The changes from baseline in FBG (fasting blood glucose), SMBG (self-monitored blood glucose) levels, waist circumference, and mean percentage change in lipids from baseline to 12 and 26 weeks are analyzed using a similar MMRM to the one used for the primary analyses. Table Abbreviations: Dula 1.5 mg=dulaglutide 1.5 mg once weekly; LY means tirzepatide, and LY 1 mg=tirzepatide 1 mg once weekly; LY 5 mg=5 mg once weekly; LY 10 mg=escalation dose group tirzepatide once weekly with highest dose of 10 mg; LY 15 mg=escalation dose group of tirzepatide once weekly with highest dose 15 mg; LOCF=last observation-carried-forward; N=number of patients; pbo=placebo; Week 26=mITT on-treatment data at Week 26 excluding data after study drug discontinuation or rescue drug initiation; mITT=modified intent-to-treat; SD=standard deviation. For Table 4, n=number of patients in the population with baseline and post-baseline value at the specified time point. For Table 6, LY10 mg=escalation dose group tirzepatide, once weekly with highest dose of 10 mg; escalation dose: (5 mg weeks 0 and 1), LY15 mg=escalation dose group tirzepatide, once weekly with highest dose of 15 mg; escalation dose: (5 mg weeks 0 and 1; 10 mg weeks 2 to 5); N=number of patients in specified group, m=number of patients who experienced new event during interval, FolUp=follow up, T/Wk=Time range, (week) and %=means percent patients spending at least some time in treatment group who experienced new event during interval. For Table 7, n is the number of patients with events meeting the criteria; N is number of patients in the population; % is percent of patients in treatment group experiencing the event.

[2] = system: patients with T2DM who have inadequate glycemic control; assay: NCT03131687: mean fasting glucose at Week 26; design: Mean change from baseline, fasting glucose: unit not given here; details: dulaglutide 1.5 mg once weekly, N 46
Description: as §1, §2

[3] = NCT03131687: weight loss at Week 26; details: dulaglutide 1.5 mg once weekly
Description: as §1, §2

[4] = NCT03131687: nausea, vomiting and diarrhea, new events per interval; details: dulaglutide 1.5 mg once weekly, N = 54
Description: as §1, §2

[5] = NCT03131687: decrease appetite (reported event); details: dulaglutide 1.5 mg once weekly, N = 54
Description: as §1, §2

[6] = second line, analysis set not given (not LOCF)

For dulaglutide [reference compound], the “% of Patients Reaching HbA1c Target <5.7%” value ([1]; LOCF Week 26 (N = 54)) was 1.9%, the “% of Patients Reaching HbA1c Target <6%” value ([1]; LOCF Week 26 (N = 54)) was 11.1% and the “odds ratio vs. placebo, Patients Reaching HbA1c Target <5.7%” value ([1]; LOCF Week 26 (N = 54)) was 1.0. The “odds ratio vs. placebo, Patients Reaching HbA1c Target <6%” value ([1]; LOCF Week 26 (N = 54)) was 4.5, the “% of Patients Reaching HbA1c Target <5.7%” value ([1]; mITT Week 26 (N = 47)) was 2.1% and the “% of Patients Reaching HbA1c Target <6%” value ([1]; mITT Week 26 (N = 47)) was 12.8%. The “odds ratio vs. placebo, Patients Reaching HbA1c Target <5.7%” value ([1]; mITT Week 26 (N = 47)) was 0.89, the “odds ratio vs. placebo, Patients Reaching HbA1c Target <6%” value ([1]; mITT Week 26 (N = 47)) was 4.5 and the “Mean change from baseline, fasting glucose” value [2] was −34.9. For the same substance, the “Mean glucose value (fasting)” value [2] was 140.5 mg/dL, the “% of Patients Achieving Weight loss ≥10%” value ([3]; LOCF) was 9.3% and the “odds ratio vs. placebo, Weight loss ≥10%” value ([3]; LOCF) was 11.7. For the same substance, the “% of Patients Achieving Weight loss ≥10%” value [3, 6] was 10.6%, the “% of Patients Achieving Weight loss ≥15%” value [3, 6] was 2.1% and the “odds ratio vs. placebo, Weight loss ≥10%” value [3, 6] was 10.4. The “Nausea Vomiting and Diarrhea: % patients who experienced new event during interval” value ([4]; Fol Up (follow up)) was 5.9%, the “Nausea Vomiting and Diarrhea: m, number of patients who experienced new event during interval” value ([4]; Fol Up (follow up)) was 3 and the “Nausea Vomiting and Diarrhea: % patients who experienced new event during interval” value ([4]; T/Wk 0) was 22.2%. For the same substance, the “Nausea Vomiting and Diarrhea: m, number of patients who experienced new event during interval” value ([4]; T/Wk 0) was 12, the “Nausea Vomiting and Diarrhea: % patients who experienced new event during interval” value ([4]; T/Wk 1) was 3.7% and the “Nausea Vomiting and Diarrhea: m, number of patients who experienced new event during interval” value ([4]; T/Wk 1) was 2. For the same substance, the “Nausea Vomiting and Diarrhea: % patients who experienced new event during interval” value ([4]; T/Wk 2) was 0.0%, the “Nausea Vomiting and Diarrhea: m, number of patients who experienced new event during interval” value ([4]; T/Wk 2) was 0 and the “Nausea Vomiting and Diarrhea: % patients who experienced new event during interval” value ([4]; T/Wk 3) was 3.8%. The “Nausea Vomiting and Diarrhea: m, number of patients who experienced new event during interval” value ([4]; T/Wk 3) was 2, the “Nausea Vomiting and Diarrhea: % patients who experienced new event during interval” value ([4]; T/Wk 4) was 1.9% and the “Nausea Vomiting and Diarrhea: m, number of patients who experienced new event during interval” value ([4]; T/Wk 4) was 1. For the same substance, the “Nausea Vomiting and Diarrhea: % patients who experienced new event during interval” value ([4]; T/Wk 5) was 0.0%, the “Nausea Vomiting and Diarrhea: m, number of patients who experienced new event during interval” value ([4]; T/Wk 5) was 0 and the “Nausea Vomiting and Diarrhea: % patients who experienced new event during interval” value ([4]; T/Wk 6) was 0.0%. For the same substance, the “Nausea Vomiting and Diarrhea: m, number of patients who experienced new event during interval” value ([4]; T/Wk 6) was 0, the “Nausea Vomiting and Diarrhea: % patients who experienced new event during interval” value ([4]; T/Wk 7) was 1.9% and the “Nausea Vomiting and Diarrhea: m, number of patients who experienced new event during interval” value ([4]; T/Wk 7) was 1. The “Nausea Vomiting and Diarrhea: % patients who experienced new event during interval” value ([4]; T/Wk 8) was 0.0%, the “Nausea Vomiting and Diarrhea: m, number of patients who experienced new event during interval” value ([4]; T/Wk 8) was 0 and the “Nausea Vomiting and Diarrhea: % patients who experienced new event during interval” value ([4]; T/Wk 9) was 1.9%. For the same substance, the “Nausea Vomiting and Diarrhea: m, number of patients who experienced new event during interval” value ([4]; T/Wk 9) was 1, the “Nausea Vomiting and Diarrhea: % patients who experienced new event during interval” value ([4]; T/Wk 10) was 0.0% and the “Nausea Vomiting and Diarrhea: m, number of patients who experienced new event during interval” value ([4]; T/Wk 10) was 0. For the same substance, the “Nausea Vomiting and Diarrhea: % patients who experienced new event during interval” value ([4]; T/Wk 11) was 0.0%, the “Nausea Vomiting and Diarrhea: m, number of patients who experienced new event during interval” value ([4]; T/Wk 11) was 0 and the “Nausea Vomiting and Diarrhea: % patients who experienced new event during interval” value ([4]; T/Wk 12) was 2.0%. The “Nausea Vomiting and Diarrhea: m, number of patients who experienced new event during interval” value ([4]; T/Wk 12) was 1, the “Nausea Vomiting and Diarrhea: % patients who experienced new event during interval” value ([4]; T/Wk >12 < 16) was 3.9% and the “Nausea Vomiting and Diarrhea: m, number of patients who experienced new event during interval” value ([4]; T/Wk >12 < 16) was 2. The “Nausea Vomiting and Diarrhea: % patients who experienced new event during interval” value ([4]; T/Wk >16 ≤ 20) was 2.0%, the “Nausea Vomiting and Diarrhea: m, number of patients who experienced new event during interval” value ([4]; T/Wk >16 ≤ 20) was 1 and the “Nausea Vomiting and Diarrhea: % patients who experienced new event during interval” value ([4]; T/Wk >20) was 7.8%. The “Nausea Vomiting and Diarrhea: m, number of patients who experienced new event during interval” value ([4]; T/Wk >20) was 4, the “Decrease Appetite (reported): n, number of patients with events” value [5] was “n = 3;” and the “Decrease Appetite (reported): percent of patients in treatment group experiencing the event” value [5] was 5.6%.
